From US20180030434A1 (Genentech, published 2018)

T1: human VEGF (8-109) (human, UniProt P15692 214-315, ALEXA FLUOR 488 or ALEXA FLUOR 647 succinimidyl ester label in the flow cytometry experiments)
T1 construct: range 8-109; The SPR section says only 'human VEGF'; also called VEGF antigen
T1 sequence (looked up): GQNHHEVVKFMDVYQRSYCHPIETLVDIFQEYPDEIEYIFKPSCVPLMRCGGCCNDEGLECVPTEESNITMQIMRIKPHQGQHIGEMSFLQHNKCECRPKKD


Legend:
[1] = biological target: T2, Unizyme-tagged human IL-13 (33-146) (human, UniProt P35225 33-146, ALEXA FLUOR 488 or ALEXA FLUOR 647 succinimidyl ester label in the staining and flow cytometry experiments); test: SPR (Biacore 3000), half-antibody from E. coli periplasmic extract captured by Fab Binder, human IL-13 as analyte, 25 C
T2 construct: range 33-146; The SPR section says only 'Human IL-13'; also called huIL-13; IL-13 antigen; not shown: Unizyme tag

human VEGF (8-109) = biological target: T1, human VEGF (8-109); test: flow cytometry (SSC against labeled VEGF) of the anti-VEGF spiking experiment, bacterial antibody display; no unstained control is drawn in these panels
Method: For bacterial display, antibodies were expressed in a Lpp deletion (Δlpp) of strain 62A7. […] After 24 hours at 30° C., 1 OD aliquots were harvested and pelleted by centrifugation (4 minutes, 6500 rcf). Cells were resuspended in 100 μL PBS pH 7.4 with 2% BSA and 5 mM EDTA and incubated at 4° C. for 30 minutes. After initial incubation, SYTO® 41 or 9 nucleic acid stain (Molecular Probes, USA) was added to a final dilution of 1:100, and ALEXA⁴⁶⁸- or ALEXA⁶⁴⁷-labeled antigen added to a final concentration of 1-2 μM. Incubation was continued at 4° C. in darkness for 1 hour, at which time MgCl₂ was added to 10-20 mM final concentration. Unbound proteins were removed by washing 3 times with 1 mL volumes of PBS pH 7.4+20 mM MgCl₂. […] The FACS™ gating strategy included cells that were SYTO® dye-positive. Doublet discrimination gates were used to remove doublets and finally antigen-positive cells were sorted.

T2 sequence (P35225 33-146, form in doubt): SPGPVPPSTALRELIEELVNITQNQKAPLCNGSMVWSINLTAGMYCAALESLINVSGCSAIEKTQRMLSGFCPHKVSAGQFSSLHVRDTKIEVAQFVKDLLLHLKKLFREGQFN

Kd [1] [pM]	koff [1] [s⁻¹]	kon [1] [M⁻¹ s⁻¹]	binding result (human VEGF (8-109))	Binder
40	5.09e-05	1.3e+06	no binding	anti-IL-13 half-antibody WT (antibody, V domains shown, Half-antibody (one heavy and one light chain, knobs-into-holes Fc); Expressed in the E. coli periplasm; for SPR captured from periplasmic extract; also called anti-IL-13 WT; Half-Ab) VH: QVTLRESGPALVKPTQTLTLTCTVSGFSLSAYSVNWIRQPPGKALEWLAMIWGDGKIVYNSALKSRLTISKDTSKNQVVLTMTNMDPVDTATYYCAGDGYYPYAMDNWGQGSLVTVSS VL: DIVMTQSPDSLSVSLGERATINCRASKSVDSYGNSFMHWYQQKPGQPPKLLIYLASNLESGVPDRFSGSGSGTDFTLTISSLQAEDVAVYYCQQNNEDPRTFGGGTKVEIK
38	4.26e-05	1.13e+06	–	anti-IL-13 half-antibody framework variant E6Q (heavy chain) (antibody, name in Kabat numbering, V domains shown, Half-antibody) VH: QVTLRQSGPALVKPTQTLTLTCTVSGFSLSAYSVNWIRQPPGKALEWLAMIWGDGKIVYNSALKSRLTISKDTSKNQVVLTMTNMDPVDTATYYCAGDGYYPYAMDNWGQGSLVTVSS VL: DIVMTQSPDSLSVSLGERATINCRASKSVDSYGNSFMHWYQQKPGQPPKLLIYLASNLESGVPDRFSGSGSGTDFTLTISSLQAEDVAVYYCQQNNEDPRTFGGGTKVEIK
29	3.16e-05	1.11e+06	–	anti-IL-13 half-antibody framework variant M4L (light chain) (antibody, name in Kabat numbering, V domains shown, Half-antibody) VH: QVTLRESGPALVKPTQTLTLTCTVSGFSLSAYSVNWIRQPPGKALEWLAMIWGDGKIVYNSALKSRLTISKDTSKNQVVLTMTNMDPVDTATYYCAGDGYYPYAMDNWGQGSLVTVSS VL: DIVLTQSPDSLSVSLGERATINCRASKSVDSYGNSFMHWYQQKPGQPPKLLIYLASNLESGVPDRFSGSGSGTDFTLTISSLQAEDVAVYYCQQNNEDPRTFGGGTKVEIK
34	4.43e-05	1.3e+06	–	anti-IL-13 half-antibody framework variant F27L (heavy chain) (antibody, name in Kabat numbering, V domains shown, Half-antibody) VH: QVTLRESGPALVKPTQTLTLTCTVSGLSLSAYSVNWIRQPPGKALEWLAMIWGDGKIVYNSALKSRLTISKDTSKNQVVLTMTNMDPVDTATYYCAGDGYYPYAMDNWGQGSLVTVSS VL: DIVMTQSPDSLSVSLGERATINCRASKSVDSYGNSFMHWYQQKPGQPPKLLIYLASNLESGVPDRFSGSGSGTDFTLTISSLQAEDVAVYYCQQNNEDPRTFGGGTKVEIK
